From patent US20040253612A1 come the findings set out here.

Test [1] has as its target 33 amino acid myc-epitope peptide coded for by RNA124. The test can be described thus: immunoprecipitation of in vitro translated peptide, lane 4 (dilution buffer wash).
For test [2] the target is unchanged. The test can be described thus: immunoprecipitation of myc-epitope peptide compared with β-globin translation product.
In test [3] the target is c-myc monoclonal antibody 9E10. The test can be described thus: immunoprecipitation with 9E10 and protein A-sepharose, acetic acid elution.
The target in test [4] is c-myc monoclonal antibody 9E10. The test can be described thus: competitive immunoprecipitation, 35S-labeled fusion, competitor unlabeled synthetic myc peptide.

Bounds are passed on as bounds.

33 amino acid myc-epitope peptide coded for by RNA124, sequence (peptide, as listed by the source): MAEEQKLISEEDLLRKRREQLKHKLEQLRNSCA

In the case of c-myc monoclonal antibody 9E10, the percent of the total TCA precipitable counts isolated in test [1] was 83%. The purification (fold) against β-globin protein in test [2] was above 100 fold.
For the substance “wild type c-myc fusion construct (peptide)”, the percentage bound to the anti-myc antibody in test [3] was 35%. Further, the percent bound in the presence of unlabeled myc peptide in test [4] was found to be 9%.
